The record followed here is paper PMC3743801.

The term Kd denotes the free concentration of one partner at which half of the binding sites on the other are occupied at equilibrium, for simple one-to-one binding.

In the experiment the target is C-terminal vinculin homology domain of α-catenin (α-catenin635–906) (UniProt P35221). The experiment in a line: fluorescence polarisation; fluorescence anisotropy of FITC-labelled EspB fragments (fluorescein at the N-terminus) and of EspB with α-catenin635–906; KD by nonlinear curve fitting; buffer and temperature not stated.
Sequence of UniProt P35221 (P35221 635-906): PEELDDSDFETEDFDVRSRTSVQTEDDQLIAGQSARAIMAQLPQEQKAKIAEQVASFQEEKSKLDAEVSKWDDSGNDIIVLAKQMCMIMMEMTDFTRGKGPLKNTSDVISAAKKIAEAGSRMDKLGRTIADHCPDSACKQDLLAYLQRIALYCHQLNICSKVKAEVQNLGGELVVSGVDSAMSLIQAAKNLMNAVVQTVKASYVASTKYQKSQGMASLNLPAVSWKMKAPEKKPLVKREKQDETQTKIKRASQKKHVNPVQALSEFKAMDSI
Take EspB51–70 (peptide): the Kd is 12 µM.

“EspB from enterohaemorrhagic E. coli (EHEC) (natural protein)” displayed a Kd of 2.9 µM.

For EspB41–60 (peptide), the Kd worked out at 23 µM.

For the substance EspB41–70 (peptide), the Kd stood at 2.5 µM.
